Here are results for four proteins from article PMC7074997, “Biodiesel and flavor compound production using a novel promiscuous cold-adapted SGNH-type lipase (HaSGNH1) from the psychrophilic bacterium Halocynthiibacter arcticus” (Biotechnology for Biofuels, 2020).

Common to all, as to test: purified protein
Holding throughout (format): biochemical, Falsihalocynthiibacter arcticus
Common to all, as to settings: free enzyme, 20 mM Tris-HCl pH 8.0, 25 °C (standard assay)

Substrate in data set [1]: CCCCCC(=O)Oc1ccc([N+](=O)[O-])cc1
Substrate in data set [2]: CC(=O)Oc1ccc([N+](=O)[O-])cc1
Substrate in data set [3]: CCCC(=O)Oc1ccc([N+](=O)[O-])cc1

B1: HaSGNH1 (Falsihalocynthiibacter arcticus) (protein)
chain: MSARVQAETVVIAALGDSLTQGYGLPQEDGLVAQLQGWLDENNHDIRLINAGVSGDTTAGGRSRIEWTLTPDVDAVIVELGGNDMMRGIAPSDSRKNLTEILEILQSRDLPVLLVGLPSANNFGPEFKAEFDDMFPALSTDFETLLYPDFFTSFRTKLNDTSALTTYMQDDAIHPNAKGVAAIVEDFGPLVVELAQQTQE
notes: ORF cloned from genomic DNA (primer starts ATG AGT GCT CGC GTT: MSARV), pET-21a, N-terminal His6 tag, E. coli BL21(DE3)
With B1, in the data set “purified protein [1]”, the Km is reported as 0.99 (± 0.20) mM, the maximal velocity (Vmax) was 57.6 µM/min, the kcat was 16.5 ± 1.45 s⁻¹ and the catalytic efficiency (kcat/Km) is 16700 M⁻¹ s⁻¹. In the data set “purified protein [2]”, the Km is recorded as 0.93 (± 0.15) mM, the maximal velocity (Vmax) is 29.4 µM/min, the turnover number (kcat) was determined as 8.38 ± 0.53 s⁻¹ and the specificity constant (kcat/Km) was found to be 8900 M⁻¹ s⁻¹. Further, in “purified protein [3]”, the Km was 0.80 (± 0.23) mM, the Vmax was found to be 60 µM/min, the kcat was found to be 17.1 ± 1.83 s⁻¹ and the specificity constant (kcat/Km) was 21300 M⁻¹ s⁻¹.

B2: HaSGNH1 (Falsihalocynthiibacter arcticus; M86R) (protein)
chain: MSARVQAETVVIAALGDSLTQGYGLPQEDGLVAQLQGWLDENNHDIRLINAGVSGDTTAGGRSRIEWTLTPDVDAVIVELGGNDMRRGIAPSDSRKNLTEILEILQSRDLPVLLVGLPSANNFGPEFKAEFDDMFPALSTDFETLLYPDFFTSFRTKLNDTSALTTYMQDDAIHPNAKGVAAIVEDFGPLVVELAQQTQE
notes: as for B1
Consider B2, for which, in the data set “purified protein [3]”, the Km is reported as 1.26 (± 0.17) mM, the maximal velocity (Vmax) was 46.8 µM/min, the kcat came out at 5.1 ± 0.35 s⁻¹ and the kcat/Km was 4200 M⁻¹ s⁻¹.

B3: HaSGNH1 (Falsihalocynthiibacter arcticus; M86E) (protein)
chain: MSARVQAETVVIAALGDSLTQGYGLPQEDGLVAQLQGWLDENNHDIRLINAGVSGDTTAGGRSRIEWTLTPDVDAVIVELGGNDMERGIAPSDSRKNLTEILEILQSRDLPVLLVGLPSANNFGPEFKAEFDDMFPALSTDFETLLYPDFFTSFRTKLNDTSALTTYMQDDAIHPNAKGVAAIVEDFGPLVVELAQQTQE
notes: as for B1
With B3, in “purified protein [3]”, the Km is recorded as 1.06 (± 0.23) mM, the maximal velocity (Vmax) worked out at 36.6 µM/min, the kcat worked out at 4 ± 0.39 s⁻¹ and the specificity constant (kcat/Km) is 3800 M⁻¹ s⁻¹.

B4: HaSGNH1 (Falsihalocynthiibacter arcticus; R87L) (protein)
chain: MSARVQAETVVIAALGDSLTQGYGLPQEDGLVAQLQGWLDENNHDIRLINAGVSGDTTAGGRSRIEWTLTPDVDAVIVELGGNDMMLGIAPSDSRKNLTEILEILQSRDLPVLLVGLPSANNFGPEFKAEFDDMFPALSTDFETLLYPDFFTSFRTKLNDTSALTTYMQDDAIHPNAKGVAAIVEDFGPLVVELAQQTQE
notes: as for B1
Consider B4, for which, in the data set “purified protein [3]”, the Km is given as 0.68 (± 0.10) mM, the Vmax came out at 69 µM/min, the turnover number (kcat) was found to be 15 ± 0.84 s⁻¹ and the kcat/Km came to 22200 M⁻¹ s⁻¹.
